Test [1] relates to mice. The test is described as follows: Protein in urine after in vivo gene delivery of dynamin mutants into healthy mice (Bradford). The arrangement: species or system mouse.
The test system of test [2] is CatL. In words: Dynamin p40 fragment in kidney extracts after gene delivery and LPS injection. Type of test: in vivo, mouse. Conditions: LPS injected at the time of gene delivery. From the text:
Next the cleavage pattern of dyn1 in kidney extracts following LPS injection was examined. Kidney cytosols were probed with antibody against the GTPase domain of dynamin, which detects p40. […] Western blotting also detected a dynamin fragment of ˜55 kD. As in cultured podocytes, the presence of this fragment was LPS- and CatL-independent (FIGS. 20B, lane 5 and 20C, lanes 1 and 2), further supporting the idea that it is generated by other proteases during tissue preparation.
Four mice kidneys were homogenized in buffer containing 20 mM HEPES pH 7.5, 100 mM NaCl, 1 mM MgCl2, 1 mM PMSF, proteinase inhibitors, calpain inhibitor (Calbiochem, San Diego, Calif.) and E-64d using dounce homogenizer. Subsequently, cytosol was centrifuged for 10 min at 7000 rpm. Proteins were solubilized by 1% Triton X, 1 h at 4° C., before it was spun at 50,000 rpm for 1 h.
CatL plasmids encoding short and long CatL (Goulet et al., Biol Chem 387, 1285-1293 (2004)), Dyn1 plasmids (pcDNA-driven) or p2.5 Podocin-driven (Moeller et al., Genesis 35, 39-42 (2003)) were introduced into mice (n>10, each construct) using the TransIT in vivo gene delivery system according to the manufacturer's instruction (Mirus Bio Corporation, Madison, Wis.). 10 and 24 h after gene delivery, proteinuria was assessed by Multistix 8 SG strips (Bayer Corporation, Elkhart, Ind.), and Bradford protein assay (Sigma, Saint Louis, Mo.). From the same urines the protein creatinine ratio was determined with Albuwell M and Creatinine Companion protein creatinine ELISA kits (Exocell Inc., Philadelphia, Pa.).

Test [3] relates to podocytes. In words: Actin stress fiber staining in cultured podocytes. The settings on record: for actin stress fibers, in words: overexpression in cultured podocytes. Type of test: cell-based, mouse. From the text:
This study examined the role of dynamin in actin dynamics of podocytes. An adenoviral expression system was utilized to obtain expression of various dynamin mutants with more than 90% infection efficiency in cultured differentiated mouse podocytes and analyzed the organization of the actin cytoskeleton, their migratory and endocytotic behavior (FIG. 1). […] This type of actin rearrangement in cultured podocytes is resembling actin rearrangement in damaged podocytes during proteinuria in situ (Smoyer and Mundel, 1998). […] Thus, the consequence on actin dynamics in podocytes was examined when dynamin is hyperactive by expressing known dominant activators, dynK694A and dynR725A (SEQ ID NO.4). Both mutants are predicted to live longer in the GTP-bound form. […] To further examine this surprising phenotype in a biological context, motility assays were performed next using a modified Boyden Chamber assay.
Since podocyte FP effacement is primarily driven by the rearrangement of the actin cytoskeleton (Asanuma et al., 2006), actin morphology was examined in cultured podocytes expressing different dynamin mutants. Podocytes were infected with various dynamin constructs using an adenoviral expression system that enables greater than 90% efficiency of infection. The experiments were performed using dyn1 (FIG. 22) as well as dyn2, with identical results. […] Thus, treatments which abolish actin stress fibers in cultured podocytes cause proteinuria in mice. […] Consistent with this notion, the deleterious effects of LPS (which reduces stress fibers) on kidney function were ameliorated by expression of dynR725A (which induces stress fibers).
Podocytes were grown under non-permissive conditions to 70% confluence. Cells were washed twice with 1×PBS and infected with 1.2 ml of serum-free DMEM media containing 100 μl transactivator virus, 100 μl virus expressing dyn1 or dyn2. After 2 h of infection at 37° C., media containing virus was replaced with full DMEM. If cells were treated with LPS or PAN, 50 μg/ml of LPS or 50 μg/ml PAN was added at this point. 18-24 h post-infection, cells were detached using trypsin and processed either for subcellular fractionation or tested in the motility assays as described in (Reiser et al., J Biol Chem 279, 34827-34832 (2004)). When stated, 20 μM of Z-FF-FMK CatL specific inhibitor (Calbiochem, San Diego, Calif.) was added simultaneously with addition of LPS.

For test [4], the system named is podocyte FP. In words: Podocyte foot process architecture by electron microscopy after gene delivery. The settings on record: gene delivery into wildtype mice. It counts as in vivo, mouse. An excerpt:
Next it was explored whether gene delivery of dynamin mutants dynR725A and dynL356Q, G358V into mice can be expressed in podocytes and if this procedure can affect podocyte FP architecture and function. First, we needed to establish a safe and reliable detection system of transferred gene expression in podocytes. Therefore we analyzed which dynamin isoforms are expressed in podocytes by RT-PCR. Podocytes express mainly dynamin 2 and little dynamin 3 but no dynamin 1 (FIG. 5A). Gene-transfer CMV promotor driven dynamin 1 constructs were used because neuronal dynamin protein is normally not expressed in podocytes and could be easily tracked by a specific monoclonal dynamin 1 antibody (FIG. 5B). […] Monoclonal dynamin antibodies MAB 5402 […] were used, which predominantly recognize dynamin 1 (FIG. 5B). Labeling of glomerular sections with MAB 5402 detected some minimal background labeling of dynamin, representing endogenous dynamin 2 (FIG. 5C). The gene transfer of dynamin 1 expression vectors led to a strong expression of dynamin 1 in glomerular cells including podocytes (FIG. 5D). Some of this labeling was also detected in podocytes, which are marked positively by synaptopodin staining, resulting in a yellow staining pattern (FIG. 5E).

The mark [5] stands for this setting: Table 2A, gene delivery into mice, t = 0.
Where [6] appears, read: Table 2A, gene delivery into mice, t = 10 h.
[7] abbreviates: Table 2A, gene delivery into mice, t = 24 h.

Where a chain is given by its changes, count along the chain named. Names may count otherwise. “Also recorded” adds a separate entry of the source.

Chain of CatL (P06797 114-333 limits assumed): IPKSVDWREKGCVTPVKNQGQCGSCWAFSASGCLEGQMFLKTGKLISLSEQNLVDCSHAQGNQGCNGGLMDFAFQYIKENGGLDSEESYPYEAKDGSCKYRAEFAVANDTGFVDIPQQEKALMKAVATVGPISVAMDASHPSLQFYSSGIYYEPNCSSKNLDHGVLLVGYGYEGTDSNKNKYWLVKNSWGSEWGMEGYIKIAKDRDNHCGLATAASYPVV

B1: dynR725A: dynamin mutant (SEQ ID NO.4) with impaired GTP hydrolysis capacity (protein, listed as Homo sapiens)
chain: MGNRGMEDLIPLVNRLQDAFSAIGQNADLDLPQIAVVGGQSAGKSSVLENFVGRDFLPRGSGIVTRRPLVLQLVNATTEYAEFLHCKGKKFTDFEEVRLEIEAETDRVTGTNKGISPVPINLRVYSPHVLNLTLVDLPGMTKVPVGDQPPDIEFQIRDMLMQFVTKENCLILAVSPANSDLANSDALKVAKEVDPQGQRTIGVITKLDLMDEGTDARDVLENKLLPLRRGYIGVVNRSQKDIDGKKDITAALAAERKFFLSHPSYRHLADRMGTPYLQKVLNQQLTNHIRDTLPGLRNKLQSQLLSIEKEVEEYKNFRPDDPARKTKALLQMVQQFAVDFEKRIEGSGDQIDTYELSGGARINRIFHERFPFELVKMEFDEKELRREISYAIKNIHGIRTGLFTPDMAFETIVKKQVKKIREPCLKCVDMVISELISTVRQCTKKLQQYPRLREEMERIVTTHIREREGRTKEQVMLLIDIELAYMNTNHEDFIGFANAQQRSNQMNKKKTSGNQDEILVIRKGWLTINNIGIMKGGSKEYWFVLTAENLSWYKDDEEKEKKYMLSVDNLKLRDVEKGFMSSKHIFALFNTEQRNVYKDYRQLELACETQEEVDSWKASFLRAGVYPERVGDKEKASETEENGSDSFMHSMDPQLERQVETIRNLVDSYMAIVNKTVRDLMPKTIMHLMINNTKEFIFSELLANLYSCGDQNTLMEESAEQAQRADEMLRMYHALKEALSIIGDINTTTVSTPMPPPVDDSWLQVQSVPAGRRSPTSSPTPQRRAPAVPPARPGSRGPAPGPPPAGSALGGAPPVPSRPGASPDPFGPPPQVPSRPNRAPPGVPSRSGQASPSRPESPRPPFDL
B1: the “Protein in the urine” value worked out at 0.26 ± 0.13 mg/mL in test [1] (setting [5]); 0.58 mg/mL in test [1] (setting [6]); 0.58 ± 0.17 mg/mL in test [1] (Table 2A, gene delivery into mice, t = 10 h, listed as Dyn R725A); 0.20 ± 0.05 mg/mL in test [1] (setting [7]); 0.88 ± 0.21 mg/mL in test [1] (Table 5 Basic Phenotype, podocin-driven vectors, t = 14 h). In addition, the “generation of p40 in kidney extracts, in words” value in test [2] is reported as “did not result in generation of p40”. Also, the “loss of stress fibers under LPS or PAN, in words” value in test [3] (LPS and PAN treatment) was “prevented the loss of actin stress fibers; also recorded: inhibited the ability of LPS to reduce stress fibers”. Also, the “actin stress fibers, in words” value in test [3] was “significantly induced stress fibers formation; also recorded: decreasing cortical actin and inducing stress fibers”. Besides, the “podocyte FP architecture, in words” value in test [4] is “resulted in partial FP effacement”.

B2: dynL356Q, G358V: dynamin mutant (SEQ ID NO.3) not recognized by cathepsin L; ELSGGA mutated to EQSVGA (protein, listed as Homo sapiens)
chain: B1 chain with L356Q, G358V, A725R
Regarding B2, the “Protein in the urine” value in test [1] (setting [5]) was 0.22 ± 0.06 mg/mL; in test [1] (setting [6]) it was 0.33 ± 0.21 mg/mL; in test [1] (setting [7]), 0.40 ± 0.15 mg/mL. The “proteinuria after gene delivery, in words” value in test [1] (healthy mice) is on record as “did not result in proteinuria”. Besides, the “generation of p40 in kidney extracts, in words” value in test [2] was “not generated”. Moreover, the “actin stress fibers, in words” value in test [3] was “did not significantly alter the F-actin staining pattern”. The “podocyte FP architecture, in words” value in test [4] is “did not show any significant changes in podocyte FP structure”.

The values are drawn from patent US9144594B2, “Cathepsin L mediated diseases and associated methods and products” (University of Miami, priority 2005, dated 2015).
